From patent US20140065111A1 (published 2014)

Target: T1, human gp100 peptide on H-2Db (mouse)
T1 peptide: KVPRNQDWL
Assay: multimer staining
Experimental: Monomers of H2D^b mouse MHC class I molecules loaded with the human gp100 peptide KVPRNQDWL were ordered from the NIH tetramer facility. Monomers were conjugated to APC-Streptavidin (eBiosience) by incubation on ice. Cells were stained with tetramers for 1H in concentrations of 0.178 μg tetramers for 1 million cells in total volume of 50 μl of PBS supplemented with 0.5% BSA and 0.1% of Na-Azide.
After testing the expression and presence of the CD3-TCR complex on the cell surface it is essential to determine the capability of the TCR to bind the MHC-class I molecule presenting the gp100 peptide. In order to test binding capability of the TCR a tetramer staining assay was performed. The tetramer staining assay is designed for testing TCR-MHC binding and was previously described (Ogg and McMichael, 1998). Briefly, the tetramer is a complex of four monomers. Each monomer formed from a mouse MHC-class I molecule, H-2D^b, presenting the human gp100 peptide KVPRNQDWL. The H-2D^b molecule is conjugated to a biotin molecule. The tetramers are assembled by linking four biotin conjugated monomers to one molecule of APC-conjugated Streptavidin. The 293TREx-CD3-Pmel-TCR cells were stained with the tetramers and analyzed by FACS.

binding result: recognises
B1: Pmel-TCR (TCR, V domains shown)
Valpha: QQKVQQSPESLTVSEGAMASLNCTFSDRSSDNFRWYRQHSGKGLEVLVSIFSDGEKEEGSFTAHLNRASLHVFLHIREPQPSDSALYLCAVNTGNYKYVFGAGTRLKVIA
Vbeta: EAGVTQSPRYAVLQEGQAVSFWCDPISGHDTLYWYQQPRDQGPQLLVYFRDEAVIDNSQLPSDRFSAVRPKGTNSTLKIQSAKQGDTATYLCASSFHRDYNSPLYFAAGTRLTVT
